From patent US20030044958A1 (ICOS, published 2003)
Each block holds one molecule with its values, some of them ahead of it.

Experiments:
VCAM-1/Fc = VCAM-1/Fc (UniProt P19320); assay: cell-based or functional assay
ICAM-1/Fc = ICAM-1/Fc (UniProt P05362); assay: cell-based or functional assay
[1] = target: T1, His3E9-tagged β2 integrin cytoplasmic tail protein (UniProt P05107 724-769, not fully specified); assay: competition binding assay, competitor at 0.001 to 4 µM against iodinated IRP-1 on immobilized β2 C-tail
T1 construct: domain: cytoplasmic tail; Expressed in E. coli (pET15b) or Saccharomyces; immobilized on Scintistrip plates; also called β2 C-tail; β2 integrin C-tail; not shown: His3E9 tag
T1 chain (looked up): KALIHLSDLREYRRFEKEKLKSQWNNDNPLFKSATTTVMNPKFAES
Protocol: (§1) The integrin C-tails were immobilized onto 96-well microtiter Scintistrip™ (Wallac) plates at concentrations between […] in volumes of 50-100 μl bicarbonate, pH 9.6, per well and were incubated at 4° C. overnight. Plates were dried and blocked in 350 μl/well sterile-filtered 1-2% Bovine Serum Albumin (BSA) dissolved in binding assay buffer and were incubated at room temperature for 1-2 hours. The wells were washed 3 times in binding assay buffer and dried just prior to addition of IRPs.
The binding assay format was either a competition/inhibition binding assay or a saturation binding assay. In the competition binding assay, radiolabeled IRPs were diluted to 25-100 nM in binding assay buffer with one potential modulator of binding (unlabelled IRPs, soluble C-tails or non-specific control polypeptides such as BSA). The assay was initiated with addition of 100 μl labeled IRPs/potential modulator solution to the blocked Scintistrip® wells (50,000-200,000 cpm/well), then incubated one hour at room temperature (22-24° C.) and stopped by rapidly washing in binding assay buffer three to five times. The saturation binding assays were performed similarly, except that a constant 1:20 ratio of radiolabeled:unlabeled IRPs were tested over a total concentration range of 0.01-30 μM. The plates were dried and scintillation was measured on a Wallac Model 1450 liquid scintillation counter after the detectors were normalized. Interwell crosstalk was corrected for with a test Scintistrip™ plate, containing in the G11, 100 μl of 25-100 nM radiolabeled IRP captured by anti-IRP monoclonal antibody 200A coated in the well at 20 μg/ml in bicarbonate buffer. The incubation times and conditions for the test plate were identical to the binding assay above.

[2] = target: T2, Bovine Serum Albumin (BSA) (bovine, UniProt P02769 25-607); assay: radiolabelled IRP-1 on BSA-blocked Scintistrip wells
T2 construct: also called control peptide
Protocol: as §1
The binding assay format was either a competition/inhibition binding assay or a saturation binding assay. In the competition binding assay, radiolabeled IRPs were diluted to 25-100 nM in binding assay buffer with one potential modulator of binding (unlabelled IRPs, soluble C-tails or non-specific control polypeptides such as BSA). […] The plates were dried and scintillation was measured on a Wallac Model 1450 liquid scintillation counter after the detectors were normalized. […]
Binding was measured as counts of radiolabeled IRPs found in C-tail-coated wells above counts found in BSA-coated wells. Specific binding was assessed as counts found in C-tail-coated wells which were reduced with added unlabelled IRPs or soluble C-tails.

Sequence of VCAM-1/Fc (P19320 25-698 limits assumed): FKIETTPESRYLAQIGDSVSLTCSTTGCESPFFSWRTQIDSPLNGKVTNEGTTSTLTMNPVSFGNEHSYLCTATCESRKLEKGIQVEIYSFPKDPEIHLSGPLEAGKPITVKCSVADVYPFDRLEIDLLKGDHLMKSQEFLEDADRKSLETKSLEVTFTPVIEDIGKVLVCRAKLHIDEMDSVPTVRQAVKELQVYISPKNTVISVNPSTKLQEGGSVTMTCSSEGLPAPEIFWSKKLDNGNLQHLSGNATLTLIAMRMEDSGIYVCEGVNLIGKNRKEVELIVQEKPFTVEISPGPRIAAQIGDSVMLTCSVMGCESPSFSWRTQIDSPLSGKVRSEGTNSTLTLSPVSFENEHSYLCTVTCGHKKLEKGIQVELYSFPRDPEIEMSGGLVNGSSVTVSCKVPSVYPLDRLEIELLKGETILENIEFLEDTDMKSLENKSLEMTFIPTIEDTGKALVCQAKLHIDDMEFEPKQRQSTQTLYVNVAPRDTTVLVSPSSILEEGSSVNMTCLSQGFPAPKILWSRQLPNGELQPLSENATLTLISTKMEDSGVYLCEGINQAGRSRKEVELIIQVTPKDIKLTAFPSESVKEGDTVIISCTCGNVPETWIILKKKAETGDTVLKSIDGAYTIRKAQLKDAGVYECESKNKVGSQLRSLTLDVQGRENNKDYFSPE
Sequence of ICAM-1/Fc (P05362 28-480 limits assumed): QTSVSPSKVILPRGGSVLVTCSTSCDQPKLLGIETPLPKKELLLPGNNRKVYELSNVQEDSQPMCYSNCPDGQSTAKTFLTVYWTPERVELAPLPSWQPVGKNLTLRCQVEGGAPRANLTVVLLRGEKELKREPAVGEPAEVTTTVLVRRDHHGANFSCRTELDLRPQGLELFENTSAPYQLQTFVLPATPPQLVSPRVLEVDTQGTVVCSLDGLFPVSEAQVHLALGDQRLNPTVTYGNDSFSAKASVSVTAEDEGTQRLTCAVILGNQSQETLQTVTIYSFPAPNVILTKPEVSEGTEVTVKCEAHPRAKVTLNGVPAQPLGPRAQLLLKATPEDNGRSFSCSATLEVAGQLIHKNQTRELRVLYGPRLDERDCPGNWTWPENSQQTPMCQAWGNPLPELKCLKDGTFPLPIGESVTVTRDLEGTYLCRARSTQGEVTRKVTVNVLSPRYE
T2 sequence (P02769 25-607 limits assumed): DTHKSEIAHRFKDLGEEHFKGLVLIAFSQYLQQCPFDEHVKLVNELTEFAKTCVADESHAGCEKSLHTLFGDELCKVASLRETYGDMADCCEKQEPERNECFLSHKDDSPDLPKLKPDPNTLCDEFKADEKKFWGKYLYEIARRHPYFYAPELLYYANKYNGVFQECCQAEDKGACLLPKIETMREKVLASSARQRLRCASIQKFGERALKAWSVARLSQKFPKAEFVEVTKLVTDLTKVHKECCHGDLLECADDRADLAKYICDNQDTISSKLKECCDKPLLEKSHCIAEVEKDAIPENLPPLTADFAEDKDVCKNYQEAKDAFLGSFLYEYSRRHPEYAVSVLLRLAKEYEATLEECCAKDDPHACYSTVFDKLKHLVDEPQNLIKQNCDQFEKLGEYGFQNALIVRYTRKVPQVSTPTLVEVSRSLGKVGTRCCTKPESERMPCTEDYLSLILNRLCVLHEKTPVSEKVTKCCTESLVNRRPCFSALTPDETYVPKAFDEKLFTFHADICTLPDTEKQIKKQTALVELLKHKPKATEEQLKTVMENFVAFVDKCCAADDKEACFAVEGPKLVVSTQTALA

IL-8 stimulated adhesion to VCAM-1 of JY-8 transfectants overexpressing B2-1 (VCAM-1/Fc): 50%
static adhesion of JY-8 cells expressing only GFP (control) to immobilized VCAM-1, IL-8 against basal level (VCAM-1/Fc): 2 fold
static adhesion of JY-8 cells to VCAM-1, PMA against basal level (VCAM-1/Fc): > 4 fold
static adhesion to VCAM-1 (IL-8 induced) of JY-8 transfectants overexpressing IRP-2 against GFP transfectants (VCAM-1/Fc): 20%
static adhesion to VCAM-1 of JY-8 transfectants overexpressing IRP-1, IL-8 stimulated (VCAM-1/Fc): 40%
Molecule: integrin α4β7 on JY or JY-8 cells (from UniProt P13612 34-1032; P26010 20-798) (receptor)

decrease in ICAM-1 adhesion of COS cells co-transfected with CD11a/CD18 and 3′HA B2-1, 5′HA B2-1, B2-1 PH or IRP-1 PH, 72 hours post-transfection, against vector control (ICAM-1/Fc): 50%
decrease in static adhesion to ICAM-1 of JY-8 transfectants overexpressing IRP-1 against GFP control (basal and IL-8 stimulated) (ICAM-1/Fc): 40 to 50%
highest flow rate at which ICAM-1 binding of JYIRP-2 cells was detected after static binding (ICAM-1/Fc): < 7.5 dynes/cm^2
static adhesion of JY-8 cells expressing only GFP (control) to immobilized ICAM-1, IL-8 against basal level (ICAM-1/Fc): 3 to 4 fold
static adhesion of JY-8 cells to ICAM-1, PMA against basal level (ICAM-1/Fc): > 4 fold
static adhesion to ICAM-1 (basal or IL-8 induced) of JY-8 transfectants overexpressing IRP-2 against GFP transfectants (ICAM-1/Fc): 20%
Molecule: LFA-1 (CD11a/CD18) on JY, JY-8 or transfected COS cells (from UniProt P20701 26-1170; P05107 23-769) (receptor)

percent decrease of iodinated IRP-1 binding [1]: ~75%
B1: IRP-1 Sec7 domain (recombinant, soluble competitor) (other)
chain: KFNMDPKKGIQFLVENELLQNTPEEIARFLYKGEGLNKTAIGDYLGEREELNLAVLHAFVDLHEFTDLNLVQALRQFLWSFRLPGEAQKIDRMMEAFAQRYCLCNPGVFQSTDTCYVLSFAVIMLNTSLHNPNVRDKPGLERFVAMNRGINEGGDLPEELLRNLYDSIRNEPFKI

percent decrease of iodinated IRP-1 binding [1]: ~75%
B2: His-tagged IRP-1 (HisIRP-1), expressed in E. coli (other)
chain: MEDGVYEPPDLTPEERMELENIRRRKQELLVEIQRLREELSEAMSEVEGLEANEGSKTLQRNRKMAMGRKKFNMDPKKGIQFLVENELLQNTPEEIARFLYKGEGLNKTAIGDYLGEREELNLAVLHAFVDLHEFTDLNLVQALRQFLWSFRLPGEAQKIDRMMEAFAQRYCLCNPGVFQSTDTCYVLSFAVIMLNTSLHNPNVRDKPGLERFVAMNRGINEGGDLPEELLRNLYDSIRNEPFKIPEDDGNDLTHTFFNPDREGWLLKLGGRVKTWKRRWFILTDNCLYYFEYTTDKEPRGIIPLENLSIREVDDPRKPNCFELYIPNNKGQLIKACKTEADGRVVEGNHMVYRISAPTQEEKDEWIKSIQAAVSVDPFYEMLAARKKRISVKKKQEQP
notes: also called unlabelled IRP-1; clone S3 protein; not shown: N-terminal histidine tag encoded by pET15b

binding result [2]: no binding
B3: iodinated IRP-1 (125I-labelled His-tagged IRP-1) (other)
chain: B2 chain
modifications: radiolabeled with 125I (Iodobead or lactoperoxidase/hydrogen peroxide method); positions not given
notes: also called radiolabeled IRP-1; not shown: His tag encoded by pET15b (non-kemptide-tagged)

percent decrease of iodinated IRP-1 binding [1]: ~75%
B4: His-tagged B2-1 (HisB2-1), expressed in E. coli (other, human, UniProt Q15438 1-398, looked up)
chain: MEEDDSYVPSDLTAEERQELENIRRRKQELLADIQRLKDEIAEVANEIENLGSTEERKNMQRNKQVAMGRKKFNMDPKKGIQFLIENDLLKNTCEDIAQFLYKGEGLNKTAIGDYLGERDEFNIQVLHAFVELHEFTDLNLVQALRQFLWSFRLPGEAQKIDRMMEAFAQRYCQCNNGVFQSTDTCYVLSFAIIMLNTSLHNPNVKDKPTVERFIAMNRGINDGGDLPEELLRNLYESIKNEPFKIPEDDGNDLTHTFFNPDREGWLLKLGGGRVKTWKRRWFILTDNCLYYFEYTTDKEPRGIIPLENLSIREVEDSKKPNCFELYIPDNKDQVIKACKTEADGRVVEGNHTVYRISAPTPEEKEEWIKCIKAAISRDPFYEMLAARKKKVSSTKRH
notes: mature; also called cytohesin-1; not shown: N-terminal histidine tag encoded by pET15b
